For one molecule, EC50 results are on record in patent publication US20250002610A1 (Genmab, published 2025).

Assay [1] has as its target T1, human FAPα (Fibroblast activation protein alpha), cell surface expressed (human, UniProt Q12884 1-760).
T1 construct: Endogenous on human lung fibroblasts and CAFs
T1 sequence: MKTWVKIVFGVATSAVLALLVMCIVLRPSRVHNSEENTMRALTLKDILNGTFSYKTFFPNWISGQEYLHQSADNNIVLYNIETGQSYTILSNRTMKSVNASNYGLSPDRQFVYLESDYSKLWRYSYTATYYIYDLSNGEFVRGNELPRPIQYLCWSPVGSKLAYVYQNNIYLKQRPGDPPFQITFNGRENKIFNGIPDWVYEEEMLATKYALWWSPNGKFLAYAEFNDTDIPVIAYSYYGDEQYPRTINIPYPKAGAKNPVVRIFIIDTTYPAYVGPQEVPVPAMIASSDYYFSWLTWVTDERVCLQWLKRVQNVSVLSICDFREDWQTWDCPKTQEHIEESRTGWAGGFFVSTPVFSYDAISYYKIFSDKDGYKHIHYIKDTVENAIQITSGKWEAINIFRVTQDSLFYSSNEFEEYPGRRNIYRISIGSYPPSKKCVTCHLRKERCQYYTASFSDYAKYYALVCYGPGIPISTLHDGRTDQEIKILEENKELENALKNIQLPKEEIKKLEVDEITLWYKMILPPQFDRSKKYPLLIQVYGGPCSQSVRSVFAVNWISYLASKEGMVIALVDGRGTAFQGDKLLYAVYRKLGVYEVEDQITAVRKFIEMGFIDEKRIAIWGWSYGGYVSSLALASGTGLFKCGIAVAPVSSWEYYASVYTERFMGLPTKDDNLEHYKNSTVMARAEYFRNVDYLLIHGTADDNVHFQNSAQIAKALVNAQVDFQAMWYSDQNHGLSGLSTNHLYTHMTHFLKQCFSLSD
Nature of the assay: flow cytometry, human lung fibroblasts, n = 1. Here is the method:
(§1) Human lung fibroblasts and CAFs (50,000 cells/well) were seeded in 96-Well round bottom plates (Greiner Bio-one, Cat #650101). Antibody dilutions were prepared using fluorescence-activated cell sorting (FACS) buffer, consisting of phosphate buffer saline (PBS, Lonza, Cat #BE17-517Q)+1% Bovine Serum Albumin (BSA, Roche, Cat #10735086001)+0.02% Sodium Azide (Bio-World, Cat #41920044-3). Plates were centrifuged, supernatant was removed, cells were resuspended in 50 μL of human Fc Block (BD, Cat #564220, diluted 1:100 in FACS buffer) and 50 μL of viability stain TO-PRO-3 Iodide (Thermo Fisher, Cat #T3605, diluted 1: 25,000 in FACS buffer), and incubated for 15 min at 4° C. Plates were washed three times with FACS buffer. Plates were centrifuged, supernatant was removed, cells were resuspended in 50 μL of antibody dilutions (concentration range 90-0.0005 μg/mL, three-fold dilution steps using FACS buffer) of BisG1-FAPα-FERL/DR4-FERR, BisG1-FAPα-FERL/b12-FERR, BisG1-b12-FERL/b12-FERR (top six concentrations only for CAFs culture) or IgG1-FAPα-FERL (top four concentrations only for CAFs culture) and incubated for 30 min at 4° C. Cells were washed three times with FACS buffer and resuspended in 50 μL of Fluorescein isothiocyanate (FITC)-labeled polyclonal antibody goat anti-mouse IgG1 (Jackson Immuno Research, Cat #109-096-097, diluted 1:100 in FACS buffer). After 30 min incubation at 4° C., cells were washed twice with FACS buffer and resuspended in FACS buffer. Antibody binding to viable cells (TO-PRO-3 negative) was analyzed by flow cytometry on a FACSCelesta™ (BD biosciences) and data were processed using FlowJo_v10.8.1 (FlowJo LLC). Geomean fluorescence intensity, gMFI, was determined and visualized using GraphPad Prism. Binding curves were analyzed using nonlinear regression analysis. The concentration (pg/mL) at which 50% of the maximal effect was observed (EC₅₀) was derived from the fitted curves.
(§2) Binding of FAPα-targeting monoclonal antibody clones, IgG1-FAPα-FEAL and IgG1-FAP5-FEAL, and bispecific antibodies carrying a binding arm derived from the two FAPα-binding clones (BisG1-FAPα-FEAL/b12-FEAR and BisG1-FAP5-FEAL/b12-FEAR) to human lung fibroblasts, which endogenously express FAPα, was compared and analyzed by flow cytometry.

Assay [2] concerns the target T1, human FAPα (Fibroblast activation …). As to the kind of experiment: flow cytometry, human lung fibroblasts, n = 2. Here is the method: as §1, with “After 30 min incubation at 4° C., cells were washed twice with FACS buffer and resuspended in FACS buffer.” left out, “The concentration (pg/mL) at which 50% of the maximal effect was observed (EC₅₀) was derived from the fitted curves.” left out
as §2

B1: BisG1-FAPα-FEAL/b12-FEAR (bispecific antibody, human IgG1, kappa)
heavy 1: EVQLLESGGGLVQPGGSPRLSCEASGFTFSSYALSWVRQAPGKGLEWVSAISGSGGGRYYADSVKGRFTISRDNSKNTLFLQMNSLRAEDTAVYYCAKEGYSSSGTYWDHWGQGTLVTVSSASTKGPSVFPLAPSSKSTSGGTAALGCLVKDYFPEPVTVSWNSGALTSGVHTFPAVLQSSGLYSLSSVVTVPSSSLGTQTYICNVNHKPSNTKVDKRVEPKSCDKTHTCPPCPAPEFEGGPSVFLFPPKPKDTLMISRTPEVTCVVVAVSHEDPEVKFNWYVDGVEVHNAKTKPREEQYNSTYRVVSVLTVLHQDWLNGKEYKCKVSNKALPAPIEKTISKAKGQPREPQVYTLPPSREEMTKNQVSLTCLVKGFYPSDIAVEWESNGQPENNYKTTPPVLDSDGSFLLYSKLTVDKSRWQQGNVFSCSVMHEALHNHYTQKSLSLSPG
light 1: AIQMTQSPSSVSASVGDRVTITCRASQGVSSWLAWYQQKPGRAPKLLIYVASTLQSGVPSRFSGSGSGTDFTLTINSLQPEDFATYYCQQANSFPPTFGQGTRLEMKRTVAAPSVFIFPPSDEQLKSGTASVVCLLNNFYPREAKVQWKVDNALQSGNSQESVTEQDSKDSTYSLSSTLTLSKADYEKHKVYACEVTHQGLSSPVTKSFNRGEC
heavy 2: QVQLVQSGAEVKKPGASVKVSCQASGYRFSNFVIHWVRQAPGQRFEWMGWINPYNGNKEFSAKFQDRVTFTADTSANTAYMELRSLRSADTAVYYCARVGPYSWDDSPQDNYYMDVWGKGTTVIVSSASTKGPSVFPLAPSSKSTSGGTAALGCLVKDYFPEPVTVSWNSGALTSGVHTFPAVLQSSGLYSLSSVVTVPSSSLGTQTYICNVNHKPSNTKVDKRVEPKSCDKTHTCPPCPAPEFEGGPSVFLFPPKPKDTLMISRTPEVTCVVVAVSHEDPEVKFNWYVDGVEVHNAKTKPREEQYNSTYRVVSVLTVLHQDWLNGKEYKCKVSNKALPAPIEKTISKAKGQPREPQVYTLPPSREEMTKNQVSLTCLVKGFYPSDIAVEWESNGQPENNYKTTPPVLDSDGSFFLYSRLTVDKSRWQQGNVFSCSVMHEALHNHYTQKSLSLSPG
light 2: EIVLTQSPGTLSLSPGERATFSCRSSHSIRSRRVAWYQHKPGQAPRLVIHGVSNRASGISDRFSGSGSGTDFTLTITRVEPEDFALYYCQVYGASSYTFGQGTKLERKRTVAAPSVFIFPPSDEQLKSGTASVVCLLNNFYPREAKVQWKVDNALQSGNSQESVTEQDSKDSTYSLSSTLTLSKADYEKHKVYACEVTHQGLSSPVTKSFNRGEC
notes: Fab-arm exchange of IgG1-FAPα-FEAL and IgG1-b12-FEAR
As for B1, the figures for the EC50 in assay [1] and in assay [2] were 0.048 µg/mL and 0.044 µg/mL, respectively.
